Substitutions are numbered along the chain they refer to. Values joined by “and” are separate entries in the source; they are usually repeats but may differ in a detail not shown here. Equal entries are not always repeated.
How the values were obtained:
CD133 protein [1] = molecular target: T1, CD133 protein (UniProt O43490 20-865, limits assumed); assay: FACS of phage dilution series on AC133/293 cells
T1 construct: whole, on cells; Presented on AC133/293 cells: paraformaldehyde-fixed in the cellular ELISA, unfixed in the phage FACS; also called CD133 antigen; AC133
T1 sequence (looked up): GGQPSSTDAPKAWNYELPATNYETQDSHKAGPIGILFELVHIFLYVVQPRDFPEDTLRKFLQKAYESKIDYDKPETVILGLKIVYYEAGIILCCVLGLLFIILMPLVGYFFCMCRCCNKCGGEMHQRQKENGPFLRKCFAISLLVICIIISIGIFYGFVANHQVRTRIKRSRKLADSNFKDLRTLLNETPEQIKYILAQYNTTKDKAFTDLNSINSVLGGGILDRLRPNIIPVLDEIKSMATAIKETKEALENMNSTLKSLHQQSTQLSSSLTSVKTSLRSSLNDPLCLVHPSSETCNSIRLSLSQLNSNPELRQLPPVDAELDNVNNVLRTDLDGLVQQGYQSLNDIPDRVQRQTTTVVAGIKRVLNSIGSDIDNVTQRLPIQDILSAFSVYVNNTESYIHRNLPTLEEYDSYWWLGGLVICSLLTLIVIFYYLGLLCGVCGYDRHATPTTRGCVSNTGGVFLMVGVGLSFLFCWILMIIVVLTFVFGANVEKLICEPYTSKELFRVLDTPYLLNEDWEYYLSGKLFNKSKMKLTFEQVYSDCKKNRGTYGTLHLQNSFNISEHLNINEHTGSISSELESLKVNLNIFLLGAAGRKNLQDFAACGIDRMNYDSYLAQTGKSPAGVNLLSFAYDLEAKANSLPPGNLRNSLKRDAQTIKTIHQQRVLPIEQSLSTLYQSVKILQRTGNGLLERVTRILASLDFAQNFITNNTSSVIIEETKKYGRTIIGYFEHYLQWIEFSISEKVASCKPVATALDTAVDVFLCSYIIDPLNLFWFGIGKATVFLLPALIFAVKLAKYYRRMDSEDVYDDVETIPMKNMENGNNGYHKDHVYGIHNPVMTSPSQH

CD133 protein [2] = molecular target: T2, CD133 protein (UniProt O43490 20-865); assay: FACS; panel A, Median FI
T2 chain: T1 sequence (looked up)

CD133 protein [3] = molecular target: T2, CD133 protein; assay: FACS; panel A, Geo-Mean FI
CD133 protein [4] = molecular target: T1, CD133 protein; assay: competitive cellular ELISA on fixed AC133/293 cells; competitor of 2 nM W6B3H10 mAb
Experimental: (§1) 1×10⁵ cells in 0.2 ml of medium were added to each well and incubated o/n at 37° C., 5% CO₂ to allow cells to attach to the surface of the plate. The next day wells were washed once with 0.2 ml PBS and fixed with 0.1 ml 2% Paraformaldehyde (in PBS, pH 7.4) for 10-20 min at RT. Wells were washed with PBS-T (PBS+0.1% Tween-20) and blocked with either 1× RotiBlock or 3% milk in PBS-T for 1 hour at RT. After washing with PBS-T, serial dilutions of the respective antibody were added to the wells and incubated at RT for at least one hour while shaking. After washing with PBS-T, 0.1 ml of StrepMAb-Classic-HRP (1:10000 in PBS-T, lba BioTagnology, Göttingen, Germany) or of horseradish peroxidase linked anti-mouse IgG (1:10000 in PBS-T, Dianova, Hamburg, Germany) was added and incubated at RT for one hour with shaking. After washing with PBS-T, 0.1 ml of 1-Step Ultra TMB-ELISA substrate (Thermo Scientific, Braunschweig, Germany) was added and incubated until an adequate blue staining developed. To stop the reaction 0.1 ml 1 M H₂SO₄ was added to each well and absorbance at 450 nm and 595 nm as a reference was measured with an infinite F200 plate reader (TECAN, Männedorf, Switzerland). […] Signals were detected using an anti-mouse IgG-HRP antibody (1:10000 in PBS-T, Dianova, Hamburg, Germany). […]

CD133 protein [5] = molecular target: T1, CD133 protein; assay: FACS of phage dilution series on AC133/293 cells, mean fluorescence index
CD133 protein [6] = molecular target: T1, CD133 protein; assay: cellular ELISA on fixed AC133/293 cells
Experimental: as §1

bovine collagen I = molecular target: T3, bovine collagen I (bovine, UniProt P02453 162-1217; P02465 80-1117, limits assumed); assay: ELISA on immobilized bovine collagen I
T3 construct: also called immobilized collagen I; soluble collagen I
Experimental: Fc-protein was used as negative control.
An Immulon 2 HB 96-well plate (NUNC, Rochester, N.Y.) was coated with 0.1 ml 1 μg/ml bovine collagen I in 15 mM Na₂CO3, 35 mM NaHCO3, pH 9.6 o/n at 4° C. Wells were washed with PBS-T, blocked with 0.1 ml 1× RotiBlock (Roth, Karlsruhe, Germany) in PBS-T for one hour and washed again before addition of 0.1 ml of threefold dilutions of fusion protein. After one hour incubation at RT with shaking, wells were washed with PBS-T. Wells were incubated with 0.1 ml anti-human IgG-HRP (Dianova, Hamburg, Germany) 1:10000 in PBS-T for one hour at RT with shaking. The plate was washed with PBS-T and incubated with 0.1 ml 1-Step Ultra TMB-ELISA (PIERCE, Rockford, Ill.). After blue staining had developed sufficiently, reactions were stopped by addition of 0.1 ml 1 M H₂SO₄. Absorbance was measured at 450 nm and 595 nm as a reference wavelength using an infinite F200 plate reader (TECAN, Männedorf, Switzerland). EC₅₀ values were calculated with Sigma Plot 11 using Four Parameter Logistic.

CD133 protein [7] = molecular target: T1, CD133 protein; assay: competition cellular ELISA on fixed AC133/293 cells; competitor of 2 nM W6B3H10 mAb
Experimental: 1×10⁵ cells in 0.2 ml of medium were added to each well and incubated o/n at 37° C., 5% CO₂ to allow cells to attach to the surface of the plate. The next day wells were washed once with 0.2 ml PBS and fixed with 0.1 ml 2% Paraformaldehyde (in PBS, pH 7.4) for 10-20 min at RT. Wells were washed with PBS-T (PBS+0.1% Tween-20) and blocked with either 1× RotiBlock or 3% milk in PBS-T for 1 hour at RT. After washing with PBS-T, serial dilutions of the respective antibody were added to the wells and incubated at RT for at least one hour while shaking. After washing with PBS-T, 0.1 ml of StrepMAb-Classic-HRP (1:10000 in PBS-T, lba BioTagnology, Göttingen, Germany) or of horseradish peroxidase linked anti-mouse IgG (1:10000 in PBS-T, Dianova, Hamburg, Germany) was added and incubated at RT for one hour with shaking. After washing with PBS-T, 0.1 ml of 1-Step Ultra TMB-ELISA substrate (Thermo Scientific, Braunschweig, Germany) was added and incubated until an adequate blue staining developed. To stop the reaction 0.1 ml 1 M H₂SO₄ was added to each well and absorbance at 450 nm and 595 nm as a reference was measured with an infinite F200 plate reader (TECAN, Männedorf, Switzerland). […] Signals were detected using an anti-mouse IgG-HRP antibody (1:10000 in PBS-T, Dianova, Hamburg, Germany).

T3 sequence (P02453 162-1217 limits assumed, chain 1 of 2): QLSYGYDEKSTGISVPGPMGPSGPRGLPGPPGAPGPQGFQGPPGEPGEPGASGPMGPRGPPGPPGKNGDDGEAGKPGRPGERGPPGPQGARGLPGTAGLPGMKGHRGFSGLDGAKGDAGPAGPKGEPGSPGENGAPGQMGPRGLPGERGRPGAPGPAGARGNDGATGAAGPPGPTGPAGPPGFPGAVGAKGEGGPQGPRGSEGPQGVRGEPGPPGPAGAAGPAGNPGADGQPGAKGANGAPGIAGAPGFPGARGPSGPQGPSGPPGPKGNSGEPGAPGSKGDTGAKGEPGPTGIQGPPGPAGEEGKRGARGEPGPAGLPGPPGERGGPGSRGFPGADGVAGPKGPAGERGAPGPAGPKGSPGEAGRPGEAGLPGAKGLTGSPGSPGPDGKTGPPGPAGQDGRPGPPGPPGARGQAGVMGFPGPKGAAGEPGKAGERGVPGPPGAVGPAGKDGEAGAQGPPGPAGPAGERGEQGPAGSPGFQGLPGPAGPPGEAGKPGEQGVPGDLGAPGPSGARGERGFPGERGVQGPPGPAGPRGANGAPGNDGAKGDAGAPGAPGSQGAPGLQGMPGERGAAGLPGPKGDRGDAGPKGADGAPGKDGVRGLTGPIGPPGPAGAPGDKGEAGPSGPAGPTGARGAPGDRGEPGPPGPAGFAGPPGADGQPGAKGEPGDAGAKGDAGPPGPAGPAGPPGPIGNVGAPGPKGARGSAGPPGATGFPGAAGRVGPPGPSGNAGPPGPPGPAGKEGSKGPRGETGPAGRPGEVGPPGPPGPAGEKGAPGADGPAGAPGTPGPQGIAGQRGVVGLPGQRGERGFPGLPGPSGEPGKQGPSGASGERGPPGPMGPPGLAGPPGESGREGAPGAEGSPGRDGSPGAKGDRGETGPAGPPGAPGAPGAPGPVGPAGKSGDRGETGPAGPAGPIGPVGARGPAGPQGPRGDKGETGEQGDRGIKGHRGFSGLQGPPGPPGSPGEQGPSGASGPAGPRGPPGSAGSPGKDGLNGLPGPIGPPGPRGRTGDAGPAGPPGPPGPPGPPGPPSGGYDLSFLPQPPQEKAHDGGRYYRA
T3 sequence (P02465 80-1117 limits assumed, chain 2 of 2): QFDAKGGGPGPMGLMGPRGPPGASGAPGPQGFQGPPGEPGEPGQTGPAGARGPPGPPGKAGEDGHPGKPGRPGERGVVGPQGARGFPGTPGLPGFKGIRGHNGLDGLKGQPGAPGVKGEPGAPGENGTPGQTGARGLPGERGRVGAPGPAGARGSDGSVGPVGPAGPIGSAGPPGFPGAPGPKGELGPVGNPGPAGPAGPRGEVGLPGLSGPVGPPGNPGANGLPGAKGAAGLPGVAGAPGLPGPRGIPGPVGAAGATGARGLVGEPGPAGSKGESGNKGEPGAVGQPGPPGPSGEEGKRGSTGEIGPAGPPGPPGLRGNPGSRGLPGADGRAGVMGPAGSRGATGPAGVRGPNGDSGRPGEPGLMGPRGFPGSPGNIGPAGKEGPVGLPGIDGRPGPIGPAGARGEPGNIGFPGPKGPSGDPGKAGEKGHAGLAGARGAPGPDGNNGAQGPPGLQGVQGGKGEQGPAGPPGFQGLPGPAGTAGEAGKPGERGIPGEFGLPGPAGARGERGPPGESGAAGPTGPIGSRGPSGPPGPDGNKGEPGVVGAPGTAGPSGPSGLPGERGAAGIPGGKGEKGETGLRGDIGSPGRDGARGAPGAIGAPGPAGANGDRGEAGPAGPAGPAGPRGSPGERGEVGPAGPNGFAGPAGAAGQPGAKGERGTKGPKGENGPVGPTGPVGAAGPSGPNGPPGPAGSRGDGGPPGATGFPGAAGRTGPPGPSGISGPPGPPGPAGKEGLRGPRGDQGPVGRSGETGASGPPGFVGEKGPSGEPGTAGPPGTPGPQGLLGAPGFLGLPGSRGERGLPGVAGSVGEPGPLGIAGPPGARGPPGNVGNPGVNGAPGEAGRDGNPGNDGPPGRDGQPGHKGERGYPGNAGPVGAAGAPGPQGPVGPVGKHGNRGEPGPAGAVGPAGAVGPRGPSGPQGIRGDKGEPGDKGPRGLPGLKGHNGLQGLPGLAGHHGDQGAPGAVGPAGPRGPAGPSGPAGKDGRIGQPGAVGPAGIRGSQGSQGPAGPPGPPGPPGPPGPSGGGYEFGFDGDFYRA

B1: phage m1h harboring the mouse single chain sequence (scFv)
scFv: DILMTQSPKSMSMSLGERVTLSCKASENVDTYVSWYQQKPEQSPKVLIYGASNRYTGVPDRFTGSGSATDFSLTISNVQAEDLADYHCGQSYRYPLTFGAGTKLELKGGGGSGGGGSGGGGSEVQLQQSGPDLMKPGASVKISCKASGYSFTNYYVHWVKQSLDKSLEWIGYVDPFNGDFNYNQKFKDKATLTVDKSSSTAYMHLSSLTSEDSAVYYCARGGLDWYDTSYWYFDVWGAGTAVTVSS
notes: also called phage harboring the original mouse single chain antibody; not shown: fusion to the phage coat protein; display format not described
- Kd (CD133 protein [1]): 25.6 pM and 26.9 pM
- Kd (CD133 protein [2]): 18.5 pM
- Kd (CD133 protein [3]): 17.4 pM

B2: single chain antibody scFv-lh (scFv, not shown: a dimerising Fc or GST)
scFv: B1 scFv
notes: Orientation light-heavy; Made in CHO cells and in E. coli (pET22b); also called mouse single chain antibody; parental mouse single chain antibody
- IC50 (CD133 protein [4]): 3100 pM

B3: phage clone 26 (humanized single chain antibody clone 26) (scFv)
scFv: DIQMTQSPKSLSASVGDRVTITCKASENVDTYVSWYQQKPGKAPKVLIYGASNRYTGVPSRFTGSGSATDFTLTISSLQPEDFATYYCGQSYRYPLTFAQGTKVEIKGGGGSGGGGSGGGGSEVQLVQSGAEVKKPGASVKVSCKASGYSFTNYYVHWVKQAPGQGLEWMGYVDPFNGDFNYNQKFKDRVTLTVDTSTSTAYMELSSLTSEDRAVYYCARGGLDWYDTSYWYFDVWGQGTLVTVSS
notes: not shown: fusion to the phage coat protein; display format not described
- Kd (CD133 protein [2]): 21.3 pM
- Kd (CD133 protein [3]): 18.2 pM
- Kd (CD133 protein [5]): 32.2 pM

B4: phage clone 27 (humanized single chain antibody derived from phage clone 27) (scFv)
scFv: B3 scFv with A13M, T63S, Y87H, A99G, S199P, S210P, R213T
notes: as for B3
- Kd (CD133 protein [1]): 50.8 pM

B5: phage clone 29 (humanized single chain antibody derived from phage clone 29) (scFv)
scFv: B3 scFv with K9R, A13V, A99G, S147C, F180L, R213T, D224H, W225C
notes: as for B3
- Kd (CD133 protein [1]): 103 pM

B6: W6B3H10 monoclonal antibody (antibody, V domains shown)
VH: EVQLQQSGPDLMKPGASVKISCKASGYSFTNYYVHWVKQSLDKSLEWIGYVDPFNGDFNYNQKFKDKATLTVDKSSSTAYMHLSSLTSEDSAVYYCARGGLDWYDTSYWYFDVWGAGTAVTVSS
VL: DILMTQSPKSMSMSLGERVTLSCKASENVDTYVSWYQQKPEQSPKVLIYGASNRYTGVPDRFTGSGSATDFSLTISNVQAEDLADYHCGQSYRYPLTFGAGTKLELK
notes: Mouse monoclonal antibody from hybridoma clone W6B3H10 (subclone of W6B3C1), with gamma heavy chain and kappa light chain; also called W6B3H10 mAb; parental mAb
- EC50 (CD133 protein [6]): 120 pM

B7: fusion protein scFv-lh-GPVI-FcIgG2 (Fc fusion)
chain: DILMTQSPKSMSMSLGERVTLSCKASENVDTYVSWYQQKPEQSPKVLIYGASNRYTGVPDRFTGSGSATDFSLTISNVQAEDLADYHCGQSYRYPLTFGAGTKLELKGGGGSGGGGSGGGGSEVQLQQSGPDLMKPGASVKISCKASGYSFTNYYVHWVKQSLDKSLEWIGYVDPFNGDFNYNQKFKDKATLTVDKSSSTAYMHLSSLTSEDSAVYYCARGGLDWYDTSYWYFDVWGAGTAVTVSSQSGPLPKPSLQALPSSLVPLEKPVTLRCQGPPGVDLYRLEKLSSSRYQDQAVLFIPAMKRSLAGRYRCSYQNGSLWSLPSDQLELVATGVFAKPSLSAQPGPAVSSGGDVTLQCQTRYGFDQFALYKEGDPAPYKNPERWYRASFPIITVTAAHSGTYRCYSFSSRDPYLWSAPSDPLELVVTGTSVTPSRLPTEPPSSVAEFSEATAELTVSFTNKVFTTETSRSITTSPKESDSPAGPARQYYTKGNGGRVECPPCPAPPVAGPSVFLFPPKPKDTLMISRTPEVTCVVVDVSHEDPEVQFNWYVDGVEVHNAKTKPREEQFNSTFRVVSVLTVVHQDWLNGKEYKCKVSNKGLPAPIEKTISKTKGQPREPQVYTLPPSREEMTKNQVSLTCLVKGFYPSDIAVEWESNGQPENNYKTTPPMLDSDGSFFLYSKLTVDKSRWQQGNVFSCSVMHEALHNHYTQKSLSLSPGK
notes: also called parental fusion protein; mouse fusion protein
- EC50 (bovine collagen I): 6300 pM
- EC50 (CD133 protein [6]): 210 pM
- IC50 (CD133 protein [7]): 3100 pM

B8: humanized fusion protein hscFv-lh-GPVI-Fc (Fc fusion)
chain: DIQMTQSPKSLSASVGDRVTITCKASENVDTYVSWYQQKPGKAPKVLIYGASNRYTGVPSRFTGSGSATDFTLTISSLQPEDFATYYCGQSYRYPLTFAQGTKVEIKGGGGSGGGGSGGGGSEVQLVQSGAEVKKPGASVKVSCKASGYSFTNYYVHWVKQAPGQGLEWMGYVDPFNGDFNYNQKFKDRVTLTVDTSTSTAYMELSSLTSEDRAVYYCARGGLDWYDTSYWYFDVWGQGTLVTVSSQSGPLPKPSLQALPSSLVPLEKPVTLRCQGPPGVDLYRLEKLSSSRYQDQAVLFIPAMKRSLAGRYRCSYQNGSLWSLPSDQLELVATGVFAKPSLSAQPGPAVSSGGDVTLQCQTRYGFDQFALYKEGDPAPYKNPERWYRASFPIITVTAAHSGTYRCYSFSSRDPYLWSAPSDPLELVVTGTSVTPSRLPTEPPSSVAEFSEATAELTVSFTNKVFTTETSRSITTSPKESDSPAGPARQYYTKGNGGRVECPPCPAPPVAGPSVFLFPPKPKDTLMISRTPEVTCVVVDVSHEDPEVQFNWYVDGVEVHNAKTKPREEQFNSTFRVVSVLTVVHQDWLNGKEYKCKVSNKGLPAPIEKTISKTKGQPREPQVYTLPPSREEMTKNQVSLTCLVKGFYPSDIAVEWESNGQPENNYKTTPPMLDSDGSFFLYSKLTVDKSRWQQGNVFSCSVMHEALHNHYTQKSLSLSPGK
- EC50 (bovine collagen I): 4700 pM
- IC50 (CD133 protein [7]): 2700 pM

From US20130130315A1 (ADVANCECOR, published 2013)
